16 substances from patent US20180244743A1 can be followed below.

Experiment [1] concerns the target human insulin receptor, A isoform (human) (UniProt P06213). Nature of the experiment: SPA competition with [125I-A14Y]-human insulin, membrane-associated hIR-A, 0.1% HSA (Ex 26).
In experiment [2] the target is human insulin receptor, B isoform (human) (UniProt P06213). Nature of the experiment: SPA competition with [125I-A14Y]-human insulin, membrane-associated hIR-B, 0.1% HSA (Ex 26).
In experiment [3] the target is human insulin receptor, A isoform (human) (UniProt P06213). Nature of the experiment: SPA competition with [125I-A14Y]-human insulin, solubilised hIR-A, 0% HSA (Ex 25).
Experiment [4] shares this target. As to the kind of experiment: SPA competition with [125I-A14Y]-human insulin, solubilised hIR-A, […] HSA (Ex 25).
In experiment [5] the target is human insulin-like growth factor 1 receptor (human) (UniProt P08069). Nature of the experiment: SPA competition with [125I-Tyr31]-human IGF-1, membrane-associated hIGF-1R, 0.1% HSA (Ex 26).

With “A8H, A21A, B3E, desB27, B29K(N(eps)tetradecanedioyl-gGlu-2×OEG), desB30 human insulin (ligand)”, the relative binding affinity (% rel to HI) is 83.7 % rel to HI in experiment [1], 81.9 % rel to HI in experiment [2], 225 % rel to HI in experiment [3] and 82.3 % rel to HI in experiment [4].

“A21A, B3Q, desB27, B29K(N(eps)tetradecanedioyl-gGlu-2×OEG), desB30 human insulin (ligand)”: the relative binding affinity (% rel to HI) is 63.8 % rel to HI in experiment [1], 48.8 % rel to HI in experiment [2], 87.7 % rel to HI in experiment [3] and 32 % rel to HI in experiment [4].

For “A8H, A21G, B3E, desB27, B29K(N(eps)tetradecanedioyl-gGlu-2×OEG), desB30 human insulin (ligand)”, the relative binding affinity (% rel to HI) in experiment [1] was 89.6 % rel to HI; in experiment [2], 90.2 % rel to HI; in experiment [3], 100 % rel to HI; in experiment [4] it was 42.4 % rel to HI.

Turning to “A14E, A21A, B3Q, desB27, B29K(N(eps)tetradecanedioyl-4×gGlu), desB30 human insulin (ligand)”, the relative binding affinity (% rel to HI) was 31 % rel to HI in experiment [1], 36.8 % rel to HI in experiment [2], 63.8 % rel to HI in experiment [3] and 37.4 % rel to HI in experiment [4].

As to “A21A, B3Q, desB27, B29K(N(eps)hexadecanedioyl-4×gGlu), desB30 human insulin (ligand)”, the relative binding affinity (% rel to HI) is 14.1 % rel to HI in experiment [1], 15.4 % rel to HI in experiment [2], 99.5 % rel to HI in experiment [3] and 8.2 % rel to HI in experiment [4].

“A21G, B3E, desB27, B29K(N(eps)tetradecanedioyl-gGlu-2×OEG), desB30 human insulin (ligand)”: the relative binding affinity (% rel to HI) in experiment [1] was 28.9 % rel to HI; in experiment [2] it was 29 % rel to HI; in experiment [3], 23.8 % rel to HI; in experiment [4], 9.2 % rel to HI.

“B3Q, desB27, B29K(N(eps)tetradecanedioyl-4×gGlu), desB30 human insulin (from UniProt P01308 90-110) (ligand)”: the relative binding affinity (% rel to HI) in experiment [5] was 4.1 % rel to HI.

As for “A8H, A21A, B3E, desB27, B29K(N(eps)tetradecanedioyl-4×gGlu), desB30 human insulin (ligand)”, the relative binding affinity (% rel to HI) in experiment [1] is 88.5 % rel to HI; in experiment [2] it was 124 % rel to HI; in experiment [3] it was 253 % rel to HI; in experiment [4], 135 % rel to HI.

As for “A21A, B3E, desB27, B29K(N(eps)tetradecanedioyl-gGlu-2×OEG), desB30 human insulin (ligand)”, the relative binding affinity (% rel to HI) is 52.1 % rel to HI in experiment [1], 49.6 % rel to HI in experiment [2], 63.4 % rel to HI in experiment [3] and 22.3 % rel to HI in experiment [4].

On to “A8R, B3E, desB27, B29K(N(eps)tetradecanedioyl-gGlu-2×OEG), desB30 human insulin (ligand)”, for which the relative binding affinity (% rel to HI) in experiment [1] was 61.3 % rel to HI; in experiment [2], 67.9 % rel to HI; in experiment [3], 103 % rel to HI; in experiment [4], 45.5 % rel to HI.

“A21A, B3E, desB27, B29K(N(eps)hexadecanedioyl-4×gGlu), desB30 human insulin (ligand)”: the relative binding affinity (% rel to HI) in experiment [1] is 14.2 % rel to HI; in experiment [2] it was 15 % rel to HI; in experiment [3], 69 % rel to HI; in experiment [4] it was 6.2 % rel to HI.

For the substance “A21A, B3Q, desB27, B29K(N(eps)tetradecanedioyl-4×gGlu), desB30 human insulin (ligand)”, the relative binding affinity (% rel to HI) was 49.4 % rel to HI in experiment [1], 62.9 % rel to HI in experiment [2], 104 % rel to HI in experiment [3] and 42.4 % rel to HI in experiment [4].

“A21A, B3E, desB27, B29K(N(eps)tetradecanedioyl-4×gGlu), desB30 human insulin (ligand)”: the relative binding affinity (% rel to HI) in experiment [1] is 40.5 % rel to HI; in experiment [2], 42.3 % rel to HI; in experiment [3], 70.5 % rel to HI; in experiment [4], 32.3 % rel to HI.

As for “A8H, B3E, desB27, B29K(N(eps)tetradecanedioyl-gGlu-2×OEG), desB30 human insulin (ligand)”, the relative binding affinity (% rel to HI) in experiment [1] is 84.1 % rel to HI; in experiment [2], 82.1 % rel to HI; in experiment [3] it was 172 % rel to HI; in experiment [4], 70.5 % rel to HI.

Regarding “A21A, B3E, desB27, B29K(N(eps)hexadecanedioyl-gGlu-2×OEG), desB30 human insulin (ligand)”, the relative binding affinity (% rel to HI) in experiment [1] was 14.3 % rel to HI; in experiment [2] it was 13.2 % rel to HI; in experiment [5], 0.1 % rel to HI; in experiment [4], 3.6 % rel to HI.

With “A21A, B3Q, desB27, B29K(N(eps)hexadecanedioyl-gGlu-2×OEG), desB30 human insulin (ligand)”, the relative binding affinity (% rel to HI) in experiment [1] is 15.8 % rel to HI; in experiment [2], 14.6 % rel to HI; in experiment [3], 76.9 % rel to HI; in experiment [4], 5.6 % rel to HI.
